15 molecules from patent US10294487B2, “Methods and compositions involving ALS variants with native substrate preference” (E I DU PONT DE NEMOURS AND COMPANY, priority 2012, dated 2019) can be followed below.

Where a chain is given by its changes, count along the chain named. Names may count otherwise.

Data set [1] has as its system G. max ALS1 protein. Description: Substrate specificity ratio (Rf), pyruvate versus 2-ketobutyrate, LC-MS of reduced products. The class given is biochemical, Glycine max. To be noted: ratio of [pyruvate] to [2-ketobutyrate] giving equal rates of acetolactate and acetohydroxybutyrate formation, 25 mM pyruvate. The source says:
The “substrate specificity ratio”, or “Rf”, characterizes the specificity of the ALS enzyme for AHB formation relative to AL formation (Gollop et al. (1989) Biochemistry 28:6310-6317). Rf is the ratio of [pyruvate] to [2-ketobutyrate] that results in equal rates of formation of acetolactate and acetohydroxybutyrate. Rf is a constant at all substrate concentrations. The substrate specificity ratio is ˜114 for the wild type Glycine max ALS1 enzyme (SEQ ID NO:1) compared to ˜3 for the highly resistant allele (HRA) double mutant variant (SEQ ID NO: 10) of the Glycine max ALS1. The soybean HRA sequence is disclosed, for example, in WO2007/024782, herein incorporated by reference.
Substrate preference was determined using the assay described in Example 3; however, the assay was conducted using a constant concentration of pyruvate (25 mM) and varying concentrations of the second substrate, 2-ketobutyrate. Each reaction involving a specific ratio of pyruvate to 2-ketobutyrate, after a set period of time, was quenched by addition of sodium borohydride (7-fold excess) to form the reduced adducts of the products of the two substrates namely; reduced acetolactate for the reaction with pyruvate and reduced aceto hydroxybutyrate for the 2-ketobutyrate reaction. The relative amounts of the two reduced products was determined by first, chromatographic separation using a 4.6×250 mm dC18 column (Atlantis) equilibrated with a 0.1% formic acid solution and subsequent elution using a methanol gradient at 0.7 ml/min, followed by detection using a Thermo FINNIGAN® LTQ® Mass Spectrometer (MS). The products of the two reactions were quantified by integration of the MS signals. The % of the amount of each of the reduced products was then plotted versus the concentration of 2-ketobutyrate. As the 2-ketobutyrate amount increased there was a consequent increase in reduced acetohydroxybutyrate (AHB) and decrease in reduced acetolactate (AL). […] The substrate specificity ratio was ˜114 for the wild type enzyme compared to 3 for the highly resistant allele (HRA) double mutant ALS variant (SEQ ID NO: 10).

Data set [2] concerns G. max ALS1 protein. Description: Colorimetric ALS kinetic assay (Km, kcat) with pyruvate as substrate. It counts as biochemical, Glycine max. The procedure: A survey of known ALS (AcetoLactate Synthase) gene variants (Table 2) was performed, and a number of ALS variants were selected for kinetic evaluation based on breadth and strength of insensitivity to ALS-inhibitor herbicides as well as kinetic activity parameters including the ratio of substrate preferences. The selected ALS gene variants (Table 3) were generated by PCR mediated site-directed mutagenesis. Finnzymes PHUSION® DNA polymerase (Cat. No. F-530S) was used for the PCR reactions, following the instructions for recommended temperatures and cycles in the PHUSION® protocol. Some mutagenesis reactions were assisted by the use of IN-FUSION® enzyme (Clontech Cat. No. 639620) to circularize a linear plasmid with the mutation located within the 15 nucleotide overlapping ends, via recombination following the manufacturer's protocol for primer design and reaction conditions. The ALS genes, beginning with encoded amino acids SISK, (S48 to K51 in the G. max ALS1 protein (SEQ ID NO:1) corresponding to the mature protein N-terminus of the chloroplast localized enzyme), were cloned into the PMAL® E. coli expression vector (New England Biolabs) to express ALS as a fusion protein with a Maltose-Binding Protein (MBP) at the N-terminus with a thrombin site for cleavage and a His-6 tag for affinity purification. All in vitro protein characterization described in the examples was carried out with the isolated proteins after cleavage from the His-MBP fusion partner.
Km and Kcat determinations for recombinant ALS variants (with respect to pyruvate as the substrate) were performed using a colorimetric assay. ALS assays were carried out in 96-well microplates with 150 ul reaction containing 25 mM potassium phosphate, 0.2 mg/ml BSA, 15 mM MgCl2, 0.7 mM TPP, 28 uM FAD and 0-100 mM sodium pyruvate. Reactions were initiated by the addition of ALS enzyme to a final amount of 0.8 ug/well. Parameters for Km and Vmax were determined by fitting the velocity versus substrate concentration data to a rectangular hyperbola using GraphPad Prism software. Kcat values were determined from Vmax based on protein concentration in the reactions.

B1: GM-ALS_P178A_W555L: highly resistant allele (HRA) double mutant of Glycine max ALS1: P→A at 178 and W→L at 555 (protein)
chain: MAATASRTTRFSSSSSHPTFPKRITRSTLPLSHQTLTKPNHALKIKCSISKPPTAAPFTKEAPTTEPFVSRFASGEPRKGADILVEALERQGVTTVFAYPGGASMEIHQALTRSAAIRNVLPRHEQGGVFAAEGYARSSGLPGVCIATSGPGATNLVSGLADALMDSVPVVAITGQVARRMIGTDAFQETPIVEVSRSITKHNYLILDVDDIPRVVAEAFFVATSGRPGPVLIDIPKDVQQQLAVPNWDEPVNLPGYLARLPRPPAEAQLEHIVRLIMEAQKPVLYVGGGSLNSSAELRRFVELTGIPVASTLMGLGTFPIGDEYSLQMLGMHGTVYANYAVDNSDLLLAFGVRFDDRVTGKLEAFASRAKIVHIDIDSAEIGKNKQAHVSVCADLKLALKGINMILEEKGVEGKFDLGGWREEINVQKHKFPLGYKTFQDAISPQHAIEVLDELTNGDAIVSTGVGQHQMWAAQFYKYKRPRQWLTSGGLGAMGFGLPAAIGAAVANPGAVVVDIDGDGSFIMNVQELATIRVENLPVKILLLNNQHLGMVVQLEDRFYKSNRAHTYLGDPSSESEIFPNMLKFADACGIPAARVTKKEELRAAIQRMLDTPGPYLLDVIVPHQEHVLPMIPSNGSFKDVITEGDGRTRY
modifications: ALS1 variant P178A W555L
Consider B1, for which the “Substrate specificity ratio (Rf)” value with G. max ALS1 protein [1] turned out to be 2.9. In the data set with G. max ALS1 protein [1] (listed as HRA), the “Substrate specificity ratio (Rf)” value came to 3. Also, in the data set with G. max ALS1 protein [2], the Km is 15 mM and the turnover number (kcat) is 1.5 s⁻¹.

B2: GM-ALS_A103T_P178S: Glycine Max ALS1 with A→T at position 103 and P→S at position 178 (protein)
chain: B1 chain with A103T, A178S, L555W
modifications: ALS1 variant A103T P178S
For the molecule B2, in the data set on G. max ALS1 protein [1], the “Substrate specificity ratio (Rf)” value came to 75.0. Further, in the data set on G. max ALS1 protein [2], the Michaelis-Menten constant (Km) came to 10 mM and the turnover number (kcat) worked out at 2.08 s⁻¹.

B3: GM-ALS_P178S: Glycine Max ALS1 variant with a P→S mutation at position 178 (protein)
chain: B1 chain with A178S, L555W
modifications: ALS1 variant P178S
As for B3, in the data set with G. max ALS1 protein [1], the “Substrate specificity ratio (Rf)” value amounted to 104.0. Moreover, in the data set on G. max ALS1 protein [2], the Km stood at 1.6 mM and the turnover number (kcat) came to 1.15 s⁻¹.

B4: GM-ALS_G102S_D357N: Glycine Max ALS1 with G→S at position 102 and D→N at position 357 (protein)
chain: B1 chain with G102S, A178P, D357N, L555W
modifications: ALS1 variant G102S D357N
Take B4: the “Substrate specificity ratio (Rf)” value with G. max ALS1 protein [1] was found to be 10.7. In the data set with G. max ALS1 protein [2], the Km is 11 mM and the kcat was 1.13 s⁻¹.

B5: GM-ALS_G102S_D357E: Glycine Max ALS1 with G→S at position 102 and D→E at position 357 (protein)
chain: B1 chain with G102S, A178P, D357E, L555W
modifications: ALS1 variant G102S D357E
Regarding B5, in the data set on G. max ALS1 protein [1], the “Substrate specificity ratio (Rf)” value was 16.9. In the data set with G. max ALS1 protein [2], the Michaelis-Menten constant (Km) was 8 mM and the kcat worked out at 1.75 s⁻¹.

B6: GM-ALS_P178S_D357E: Glycine Max ALS1 with P→S at position 178 and D→E at position 357 (protein)
chain: B1 chain with A178S, D357E, L555W
modifications: ALS1 variant P178S D357E
Consider B6, for which the “Substrate specificity ratio (Rf)” value in the data set on G. max ALS1 protein [1] was found to be 100.0. Moreover, in the data set on G. max ALS1 protein [2], the Km is 6 mM and the kcat came out at 3.17 s⁻¹.

B7: GM-ALS_P178A_F559D: Glycine Max ALS1 with P→A at position 178 and F→D at position 559 (protein)
chain: B1 chain with L555W, F559D
modifications: ALS1 variant P178A F559D
For B7, the “Substrate specificity ratio (Rf)” value with G. max ALS1 protein [1] is reported as 100.0. Moreover, in the data set with G. max ALS1 protein [2], the Km was determined as 40 mM and the kcat was found to be 0.6 s⁻¹.

B8: GM-ALS_P178L_W555L: Glycine Max ALS1 with P→L at position 178 and W→L at position 555 (protein)
chain: B1 chain with A178L
modifications: ALS1 variant P178L W555L
On to B8, for which the “Substrate specificity ratio (Rf)” value with G. max ALS1 protein [1] is listed as 2.7. Further, in the data set with G. max ALS1 protein [2], the Michaelis constant (Km) was found to be 36 mM and the kcat turned out to be 0.35 s⁻¹.

B9: GM-ALS_P178Q: Glycine Max ALS1 variant with a P→Q mutation at position 178 (protein)
chain: B1 chain with A178Q, L555W
modifications: ALS1 variant P178Q
On to B9, for which the “Substrate specificity ratio (Rf)” value with G. max ALS1 protein [1] is 86.0. In the data set with G. max ALS1 protein [2], the Km is 3 mM and the kcat stood at 2.72 s⁻¹.

B10: GM-ALS_A103T: Glycine Max ALS1 variant with a A→T mutation at position 103 (protein)
chain: B1 chain with A103T, A178P, L555W
modifications: ALS1 variant A103T
With B10, the “Substrate specificity ratio (Rf)” value in the data set with G. max ALS1 protein [1] was 83.3. Further, in the data set on G. max ALS1 protein [2], the Michaelis constant (Km) turned out to be 3 mM and the catalytic constant (kcat) is 1.82 s⁻¹.

B11: GM-ALS_A103T_P178S_D357E: Glycine Max ALS1 with A→T at 103, P→S at 178 and D→E at 357 (protein)
chain: B1 chain with A103T, A178S, D357E, L555W
modifications: ALS1 variant A103T P178S D357E
Consider B11, for which the “Substrate specificity ratio (Rf)” value with G. max ALS1 protein [1] amounted to 114.0. Besides, in the data set on G. max ALS1 protein [2], the Michaelis-Menten constant (Km) was determined as 21 mM and the turnover number (kcat) was found to be 1.05 s⁻¹.

B12: GM-ALS_P178A: Glycine Max ALS1 variant with a P→A mutation at position 178 (protein)
chain: B1 chain with L555W
modifications: ALS1 variant P178A
For the molecule B12, in the data set on G. max ALS1 protein [1], the “Substrate specificity ratio (Rf)” value stood at 119.0. In the data set on G. max ALS1 protein [2], the Michaelis-Menten constant (Km) is 5 mM and the kcat came out at 1.08 s⁻¹.

B13: GM-ALS_P178L: Glycine Max ALS1 variant with a P→L mutation at position 178 (protein)
chain: B1 chain with A178L, L555W
modifications: ALS1 variant P178L
With B13, the “Substrate specificity ratio (Rf)” value in the data set with G. max ALS1 protein [1] amounted to 119.0. Moreover, in the data set on G. max ALS1 protein [2], the Km came to 14.8 mM and the kcat is 4.18 s⁻¹.

B14: GM-ALS_G102S_P178S: Glycine Max ALS1 with G→S at position 102 and P→S at position 178 (protein)
chain: B1 chain with G102S, A178S, L555W
modifications: ALS1 variant G102S P178S
As to B14, the “Substrate specificity ratio (Rf)” value in the data set with G. max ALS1 protein [1] came to 12.0. Besides, in the data set with G. max ALS1 protein [2], the Michaelis-Menten constant (Km) stood at 5 mM and the kcat came to 1.47 s⁻¹.

B15: GM-ALS_G102S: Glycine Max ALS1 variant with a G→S mutation at position 102 (protein)
chain: B1 chain with G102S, A178P, L555W
modifications: ALS1 variant G102S
Consider B15, for which, in the data set with G. max ALS1 protein [1], the “Substrate specificity ratio (Rf)” value is reported as 10.2. Further, in the data set with G. max ALS1 protein [2], the Michaelis-Menten constant (Km) was 3.5 mM and the kcat was determined as 1.33 s⁻¹.
